Data reported in the supplement of paper PMC5998384.

What was measured:
HeLa Kyoto [1] = test: thermal stability score vs G1/S (z-score of summed log2 fold changes over temperatures); higher = more thermally stable than in G1/S
HeLa Kyoto [2] = test: solubility change mitosis vs G1/S (difference of NP-40 vs SDS log2 ratios) (log2 ratio difference); higher = more soluble in mitosis
HeLa Kyoto [3] = test: solubility in G1/S (NP-40 vs SDS abundance) (log2 ratio); higher = more soluble; conditions: cell cycle stage: G1/S
HeLa Kyoto [4] = test: melting temperature (median over replicates), in situ; higher = more thermally stable
[5] = cell cycle stage: early G1 (4.5 h after nocodazole release)
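For melting temperature (median over replicates), in situ in this document: HeLa Kyoto cells synchronized by double thymidine or nocodazole block, proteins quantified by TMT10plex mass spectrometry, three independent biological replicates.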
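For solubility change mitosis vs G1/S (difference of NP-40 vs SDS log2 ratios) in this document: synchronized HeLa Kyoto cells (double thymidine block for G1/S, nocodazole release for mitosis), protein amounts in NP-40 versus SDS lysates quantified by mass spectrometry, three biological replicates.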
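For solubility in G1/S (NP-40 vs SDS abundance) in this document: HeLa Kyoto cells arrested at G1/S by double thymidine block, proteins quantified by TMT10plex mass spectrometry in mild NP-40 versus SDS extracts, three biological replicates.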
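For thermal stability score vs G1/S (z-score of summed log2 fold changes over temperatures) in this document: synchronized HeLa Kyoto cells, proteins quantified by TMT10plex mass spectrometry, three biological replicates, mitosis taken 0.5 h after nocodazole release, G1/S directly after double thymidine block.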

Row | Sequence | thermal stability score (HeLa Kyoto [1]; [5]) | thermal stability score (HeLa Kyoto [1]; cell cycle stage: mitosis) | solubility change mitosis (log2) (HeLa Kyoto [2]) | solubility in G1/S (log2) (HeLa Kyoto [3]) | melting temperature (HeLa Kyoto [4]; cell cycle stage: G1/S) [°C] | melting temperature (HeLa Kyoto [4]; cell cycle stage: mitosis) [°C]
1 | MAEGDEAARGQQPHQGLWRRRRTSDPSAAVNHVSSTTSLGENYEDDDLVNSDEVMKKPCPVQIVLAHEDDHNFELDEEALEQILLQEHIRDLNIVVVSVAGAFRKGKSFLLDFMLRYMYNKDSQSWIGGNNEPLTGFTWRGGCERETTGIQVWNEVFVIDRPNGTKVAVLLMDTQGAFDSQSTIKDCATVFALSTMTSSVQVYNLSQNIQEDDLQHLQLFTEYGRLAMEEIYQKPFQTLMFLIRDWSYPYEHSYGLEGGKQFLEKRLQVKQNQHEELQNVRKHIHNCFSNLGCFLLPHPGLKVATNPSFDGRLKDIDEDFKRELRNLVPLLLAPENLVEKEISGSKVTCRDLVEYFKAYIKIYQGEELPHPKSMLQATAEANNLAAVAGARDTYCKSMEQVCGGDKPYIAPSDLERKHLDLKEVAIKQFRSVKKMGGDEFCRRYQDQLEAEIEETYANFIKHNDGKNIFYAARTPATLFAVMFAMYIISGLTGFIGLNSIAVLCNLVMGLALIFLCTWAYVKYSGEFREIGTVIDQIAETLWEQVLKPLGDNLMEENIRQSVTNSIKAGLTDQVSHHARLKTD [ATL2] | -0.416 | -0.584 | -0.192 | -0.0336 | 51.8 | 51.8
2 | MAEGEDVPPLPTSSGDGWEKDLEEALEAGGCDLETLRNIIQGRPLPADLRAKVWKIALNVAGKGDSLASWDGILDLPEQNTIHKDCLQFIDQLSVPEEKAAELLLDIESVITFYCKSRNIKYSTSLSWIHLLKPLVHLQLPRSDLYNCFYAIMNKYIPRDCSQKGRPFHLFRLLIQYHEPELCSYLDTKKITPDSYALNWLGSLFACYCSTEVTQAIWDGYLQQADPFFIYFLMLIILVNAKEVILTQESDSKEEVIKFLENTPSSLNIEDIEDLFSLAQYYCSKTPASFRKDNHHLFGSTLLGIKDDDADLSQALCLAISVSEILQANQLQGEGVRFFVVDCRPAEQYNAGHLSTAFHLDSDLMLQNPSEFAQSVKSLLEAQKQSIESGSIAGGEHLCFMGSGREEEDMYMNMVLAHFLQKNKEYVSIASGGFMALQQHLADINVDGPENGYGHWIASTSGSRSSINSVDGESPNGSSDRGMKSLVNKMTVALKTKSVNVREKVISFIENTSTPVDRMSFNLPWPDRSCTERHVSSSDRVGKPYRGVKPVFSIGDEEEYDTDEIDSSSMSDDDRKEVVNIQTWINKPDVKHHFPCKEVKESGHMFPSHLLVTATHMYCLREIVSRKGLAYIQSRQALNSVVKITSKKKHPELITFKYGNSSASGIEILAIERYLIPNAGDATKAIKQQIMKVLDALES [TBC1D23] | 0.43 | 0.147 | 0.0232 | 0.0926 | 50.5 | 50
3 | MAEHPPLLDTTQILSSDISLLSAPIVSADGTQQVILVQVNPGEAFTIRREDGQFQCITGPAQVPMMSPNGSVPPIYVPPGYAPQVIEDNGVRRVVVVPQAPEFHPGSHTVLHRSPHPPLPGFIPVPTMMPPPPRHMYSPVTGAGDMTTQYMPQYQSSQVYGDVDAHSTHGRSNFRDERSSKTYERLQKKLKDRQGTQKDKMSSPPSSPQKCPSPINEHNGLIKGQIAGGINTGSAKIKSGKGKGGTQVDTEIEEKDEETKAFEALLSNIVKPVASDIQARTVVLTWSPPSSLINGETDESSVPELYGYEVLISSTGKDGKYKSVYVGEETNITLNDLKPAMDYHAKVQAEYNSIKGTPSEAEIFTTLSCEPDIPNPPRIANRTKNSLTLQWKAPSDNGSKIQNFVLEWDEGKGNGEFCQCYMGSQKQFKITKLSPAMGCKFRLSARNDYGTSGFSEEVLYYTSGCAPSMPASPVLTKAGITWLSLQWSKPSGTPSDEGISYILEMEEETSGYGFKPKYDGEDLAYTVKNLRRSTKYKFKVIAYNSEGKSNPSEVVEFTTCPDKPGIPVKPSVKGKIHSHSFKITWDPPKDNGGATINKYVVEMAEGSNGNKWEMIYSGATREHLCDRLNPGCFYRLRVYCISDGGQSAVSESLLVQTPAVPPGPCLPPRLQGRPKAKEIQLRWGPPLVDGGSPISCYSVEMSPIEKDEPREVYQGSEVECTVSSLLPGKTYSFRLRAANKMGFGPFSEKCDITTAPGPPDQCKPPQVTCRSATCAQVNWEVPLSNGTDVTEYRLEWGGVEGSMQICYCGPGLSYEIKGLSPATTYYCRVQALSVVGAGPFSEVVACVTPPSVPGIVTCLQEISDDEIENPHYSPSTCLAISWEKPCDHGSEILAYSIDFGDKQSLTVGKVTSYIINNLQPDTTYRIRIQALNSLGAGPFSHMIKLKTKPLPPDPPRLECVAFSHQNLKLKWGEGTPKTLSTDSIQYHLQMEDKNGRFVSLYRGPCHTYKVQRLNESTSYKFCIQACNEAGEGPLSQEYIFTTPKSVPAALKAPKIEKVNDHICEITWECLQPMKGDPVIYSLQVMLGKDSEFKQIYKGPDSSFRYSSLQLNCEYRFRVCAIRQCQDSLGHQDLVGPYSTTVLFISQRTEPPASTNRDTVESTRTRRALSDEQCAAVILVLFAFFSILIAFIIQYFVIK [FNDC3A] | 1.05 | 2.65 | -0.0736 | -0.111 | 48.7 | 49.1
4 | MAEMATATRLLGWRVASWRLRPPLAGFVSQRAHSLLPVDDAINGLSEEQRQLRQTMAKFLQEHLAPKAQEIDRSNEFKNLREFWKQLGNLGVLGITAPVQYGGSGLGYLEHVLVMEEISRASGAVGLSYGAHSNLCINQLVRNGNEAQKEKYLPKLISGEYIGALAMSEPNAGSDVVSMKLKAEKKGNHYILNGNKFWITNGPDADVLIVYAKTDLAAVPASRGITAFIVEKGMPGFSTSKKLDKLGMRGSNTCELIFEDCKIPAANILGHENKGVYVLMSGLDLERLVLAGGPLGLMQAVLDHTIPYLHVREAFGQKIGHFQLMQGKMADMYTRLMACRQYVYNVAKACDEGHCTAKDCAGVILYSAECATQVALDGIQCFGGNGYINDFPMGRFLRDAKLYEIGAGTSEVRRLVIGRAFNADFH [IVD] | -0.748 | -4.11 | -0.107 | 0.138 | 54 | 53.8
